Laboratory results as given in US20090291081A1 (AbbVie / Abbott, published 2009).
Substitutions are numbered along the chain they refer to.

T1: human IL-1α (human, UniProt P01583 113-271)
T1 construct: also called IL-1alpha; hIL-1α
T1 sequence (looked up): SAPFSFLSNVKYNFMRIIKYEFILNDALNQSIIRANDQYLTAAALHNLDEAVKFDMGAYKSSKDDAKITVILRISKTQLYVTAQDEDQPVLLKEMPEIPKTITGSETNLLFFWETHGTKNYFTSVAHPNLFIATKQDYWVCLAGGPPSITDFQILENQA

B1: ABT1-95-35 (other)
VL: DIQMTQSPSSLSASVGDRVTITCRASGPIVRNLRWYQQKPGKAPKLLIYSSSYLEPGVPSRFSGSGSGTDFTLTISSLQPEDFATYHCQQGYRWPVTFGQGTKVEIKR
notes: VK dAb
B2: ABT1-95-57 (other)
VL: B1 VL with G27Q, R31E
notes: VK dAb
B3: ABT1-95-42 (other)
VL: B1 VL with G27F
notes: VK dAb
B4: ABT1-95-69 (other)
VL: B1 VL with G27Q, S50K
notes: VK dAb
B5: ABT1-95-75 (other)
VL: B1 VL with G27Q, S51A
notes: VK dAb
B6: ABT1-95-78 (other)
VL: B1 VL with G27Q, S51E
notes: VK dAb
B7: ABT1-95-50 (other)
VL: B1 VL with G27Q, V30P
notes: VK dAb
B8: ABT1-95-59 (other)
VL: B1 VL with G27Q, R31K
notes: VK dAb
B9: ABT1-95-46 (other)
VL: B1 VL with G27S, R31Q
notes: VK dAb
B10: ABT1-95-74 (other)
VL: B1 VL with G27Q, K39R, S51G
notes: VK dAb
B11: ABT1-95-76 (other)
VL: B1 VL with G27Q, S51G
notes: VK dAb
B12: ABT1-95-65 (other)
VL: B1 VL with G27Q, S50G
notes: VK dAb
B13: ABT1-95-72 (other)
VL: B1 VL with G27Q, S50H
notes: VK dAb
B14: ABT1-95-39 (other)
VL: B1 VL with G27Q, S77G
notes: VK dAb
B15: ABT1-95-53 (other)
VL: B1 VL with G27Q, R31A
notes: VK dAb
B16: ABT1-95-58 (other)
VL: B1 VL with S26R, G27Q, R31S
notes: VK dAb
B17: ABT1-95-71 (other)
VL: B1 VL with G27Q, S50N
notes: VK dAb
B18: ABT1-95-70 (other)
VL: B1 VL with G27Q, I48V, S50G
notes: VK dAb
B19: ABT1-95-77 (other)
VL: B1 VL with G27Q, K45E, S51G
notes: VK dAb
B20: ABT1-95-52 (other)
VL: B1 VL with G27Q, R31S
notes: VK dAb
B21: ABT1-95-63 (other)
VL: B1 VL with G27Q, P40L, Y49F
notes: VK dAb
B22: ABT1-95-54 (other)
VL: B1 VL with G27Q, R31T
notes: VK dAb
B23: ABT1-95-55 (other)
VL: B1 VL with G27Q, R31H
notes: VK dAb
B24: ABT1-95-60 (other)
VL: B1 VL with S9A, G27Q, R31A
notes: VK dAb
B25: ABT1-95-73 (other)
VL: B1 VL with G27Q, S50Q
notes: VK dAb

Target: T1, human IL-1α
Assay: Table 62 IC50; RBA presumed

Binder	IC50 [nM]
B1	0.2
B2	0.6
B3	0.1
B4	1
B5	0.3
B6	0.3
B7	0.5
B8	0.3
B9	0.8
B10	0.3
B11	0.3
B12	0.2
B13	1
B14	0.2
B15	0.3
B16	0.6
B17	1
B18	0.1
B19	0.3
B20	1
B21	0.6
B22	1
B23	0.6
B24	0.7
B25	3
